Measurements from patent publication US20260027179A1 (UNIVERSITY OF BRITISH COLUMBIA, published 2026).

Target: T1, Purified recombinant human α-synuclein (N-terminal histidine tagged, Sigma, S7820-500UG) (human, UniProt P37840 1-140)
T1 construct: also called immobilized α-synuclein; not shown: N-terminal histidine tag
Assay: Biacore 3000 SPR, α-synuclein immobilized on CM5 chip, peptide 0.20-12.50 µM injected

B1: Tat-βsyn-degron peptide (peptide)
peptide: YGRKKRRQRRRRTKSGVYLVGRRRG
notes: Chemically synthesized by GL Biochem; also called α-synuclein targeting peptide
B1: binds.
